Results from patent publication US6528098B2, “Preparation of a therapeutic composition” (Advanced Viral Research Corp., priority 1996, dated 2003).
Entries after “also recorded” stand apart in the source; their conditions may differ. No end group written: not given here.

Assays:
[1] = system: IL-8 secretion by U937 cells; test: IL-8 secretion by cultured U937 cells, ELISA; assay type: cell-based, human; conditions: for production of interlukin-8 (IL-8) in U937 cells: general statement; for up-regulation of IL-8 secretion compared with Product R: peptide solutions 2 mg/ml, equimolar mixture 4 mg/ml, final concentration 10% in culture media, FIG. 20
Protocol: (§1) Ammonium sulfate precipitation of Product U peptides: Product U samples are lyophilized and re-dissolved in 20% of original sample volume in water (5X concentrated). Ammonium sulfate crystals are added to the solution to reach 60% ammonium sulfate saturation (390 mg/ml solution). Gentle mixing solubilizes crystals. Protein precipitates appear after 30 mm to 1 hr incubation on ice and is centrifuged at 16,000×g for 30 min. at […]. The pellet is dissolved in 5% of original sample volume in water. The solution is desalted by gel filtration chromatography through a column of BioGel P-2. The column is eluted with 0.1X phosphate buffered saline (PBS). Only protein containing fractions are pooled and lyophilized.
(§2) Separation and isolation of two major neptide of Product R by gel ruhranon chromatography: A BioGel P-10 column (1.6 cm×52 cm) was equilibrated with 0.1X concentration of PBS. Two ml of 2X concentrated Product R was applied to the column, which was eluted with the same buffer at a flow rate of 25 mI/hr. Four mm. fractions were collected. All protein-containing fractions are analyzed by Sodium dodecyl sulfate polyacrilamide gel electrophoresis (SDS-PAGE). Fraction, containing primarily peptide A and peptide B are pooled separately and lyophilized. Peptide A pool contains very little contamination of the other peptide, however, the peptide B pool is highly enriched but still contains peptide A as a major contaminant. A reasonable estimate of peptide purity in the pools is >90% for peptide A and >75% for peptide B.
U937 cell culture: The U937 human hystiocytic lymphoma cell line was purchased from the American Type Culture Collection. Cells were thawed and maintained in logarithmic growth (5-9×10^5 cells/mL) in RPMI 1640 culture medium, supplemented with 10% fetal bovine serum, heat inactivated at 56° C. for 30 min, 2mM L-glutamine and 1x Penicillin-Streptomycin.
Product R or isolated peptide treatment: Cells (1.0×10^5/ml) are cultured in growth medium containing Product R, isolated purified peptide solution, mixed peptides solution or Dulbecco's PBS for 2 days. Following centrifugation, the culture supernatants are analyzed using chemokine ELISA kits. Final concentration of Product R in the culture medium was 10% (v/v). The ammonium sulfate precipitated peptides were reconstituted in culture medium to yield a 10 mg/ml solution. Two 2-fold dilutions were prepared, also using culture medium as diluent. These solutions were used at a final concentration of 10% in the U937 cell culture. The individual lyophilized peptides were reconstituted in endotoxin-free water to yield 2 mg/ml solutions (which is the approximate concentration of each peptide in Product R). An equimolar mixture of both peptides was prepared at a final concentration of 4 mg/ml. Both were used at a final concentration of 10% in the culture media for the assays.
(§3) Measurement of secreted IL-8 and MCP-1: The concentrations of IL-8 and MCP-1 in the culture supernatants are assayed by ELISA, using human IL-S ELISA kits (Endogen. Inc.) and Quantikine human MCP-1 ELISA kits (R&D Systems, Inc.), respectively, according to manufacturer's instructions (with slight modifications for the MCP-1 ELISA). […] Absorbances are measured on a PowerWave 200 Microplate Scanning Spectrophotometer. Dilutions of the standard protein supplied by each manufacturer are utilized to generate a four-parameter logistic fit standard curve, and the concentration of chemokine in each supernatant is determined by extrapolation.

chymotrypsin = molecular target: T1, chymotrypsin (Bos taurus, UniProt P00766); test: Treatment of Product R with chymotrypsin, SDS-PAGE on a 16% gel; assay type: physicochemical; design: key to Sensitivity of the Peptide Components of Product R (SDS-PAGE): Chymotrypsin (250 μg/ml): “−” represents no substantial alteration of the stainable bands; “+” represents substantial alteration of the stainable bands; conditions: 250 μg/ml chymotrypsin, 25° C., 19 hours
T1 construct: purchased Boehringer Mannheim, USA
Protocol: (§4) The biochemical properties of the peptides: Some biochemical properties of the silverstainable peptide components of Product R are analyzed using various catabolic enzymes, as described below:
The treatment with chymotrypsin (Boehringer Mannheim, USA):Chymotrypsin is a serine protease that specifically hydrolyses the peptide bonds of tyrosine, phenylalanine and tryptophan at C-terminals. It also cleaves peptide bonds of leucine, methionine, alanine, aspartic acid and glutamic acid at C-terminals at relatively lower rates. A Product R sample is incubated in a reaction buffer containing 100 mM Tris-HCl, pH 7.6, 10 mM CaCl2 and 250 μg/ml of sequencing grade chymotrypsin at 25° C. for 19 hours and then subject to SDS-PAGE on a 16% gel.
(§5) A summary of the above described treatments by catabolic enzymes is provided in the following TABLE III, and the results of the treatment are shown in FIG. 5, wherein “−” represents no substantial alteration of the stainable bands and “+” represents substantial alteration of the stainable bands.

[2] = system: MCP-1 secretion by U937 cells; test: MCP-1 secretion by cultured U937 cells, ELISA; assay type: cell-based, human; conditions: for production of monocyte chemotactic protein 1 (MCP-1) in U937 cells: general statement; for up-regulation of MCP-1 secretion compared with Product R: peptide solutions 2 mg/ml, equimolar mixture 4 mg/ml, final concentration 10% in culture media, FIG. 20
Protocol: as §1, §2
U937 cell culture: The U937 human hystiocytic lymphoma cell line was purchased from the American Type Culture Collection. […]
Product R or isolated peptide treatment: Cells (1.0×10^5/ml) are cultured in growth medium containing Product R, isolated purified peptide solution, mixed peptides solution or Dulbecco's PBS for 2 days. Following centrifugation, the culture supernatants are analyzed using chemokine ELISA kits. […]
as §3

trypsin = molecular target: T2, trypsin (Bos taurus, UniProt P00760); test: Treatment of Product R with trypsin, SDS-PAGE on a 16% gel; assay type: physicochemical; design: key: “−” represents no substantial alteration of the stainable bands; “+” represents substantial alteration of the stainable bands; conditions: 250 μg/ml trypsin, 25° C., 19 hours
T2 construct: purchased Boehringer Mannheim USA
T2 sequence (P00760 24-246): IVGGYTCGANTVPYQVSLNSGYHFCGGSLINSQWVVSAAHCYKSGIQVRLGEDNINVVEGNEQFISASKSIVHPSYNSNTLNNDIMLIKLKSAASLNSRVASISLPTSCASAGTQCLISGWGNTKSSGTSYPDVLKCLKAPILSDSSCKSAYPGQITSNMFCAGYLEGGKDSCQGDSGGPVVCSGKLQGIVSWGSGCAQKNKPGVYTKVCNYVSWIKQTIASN
Protocol: as §4
The treatment with trypsin (Boehringer Mannheim USA): Trypsin is a serine protease, which specifically cleaves peptide bonds of lysine and arginine at the C-terminal at pH 7.5-9.0. A Product R sample is incubated in a reaction buffer having 100 mM Tris-HCl, pH 8.0, 0.1% SDS and 250 μg/ml of sequencing grade trypsin at 25° C. for 19 hours and then subject to SDS-PAGE on a 16% gel. While serum proteins will be broken down to peptides smaller than 4.3 KDa under such reaction conditions, none of the silver stained components of Product R are affected by trypsin.
as §5

proteinase K = molecular target: T3, proteinase K (Parengyodontium album, UniProt P06873); test: Treatment of Product R with proteinase K, SDS-PAGE on a 16% gel, silver stain; assay type: physicochemical; design: key to Sensitivity of the Peptide Components of Product R (SDS-PAGE): Proteinase K (100 μg/ml) / Sensitivity of the Peptide Components of Product R (SDS-PAGE): Proteinase K (800 μg/ml): “−” represents no substantial alteration of the stainable bands; “+” represents substantial alteration of the stainable bands; conditions: for Sensitivity of the Peptide Components of Product R (SDS-PAGE): Proteinase K (800 μg/ml) / change of silver stained bands after proteinase K treatment: 800 μg/ml proteinase K, one hour
T3 construct: purchased ICN Biochemicals
Protocol: as §4
The treatment with proteinase K (ICN Biochemicals): Proteinase K is a non-specific broad spectrum protease that cleaves peptide bonds at the C-terminal of aliphatic, aromatic and hydrophobic amino acids. It may cleave all serum peptides completely at 50 μg/ml within one hour. […]
as §5

T3 sequence (P06873 106-384): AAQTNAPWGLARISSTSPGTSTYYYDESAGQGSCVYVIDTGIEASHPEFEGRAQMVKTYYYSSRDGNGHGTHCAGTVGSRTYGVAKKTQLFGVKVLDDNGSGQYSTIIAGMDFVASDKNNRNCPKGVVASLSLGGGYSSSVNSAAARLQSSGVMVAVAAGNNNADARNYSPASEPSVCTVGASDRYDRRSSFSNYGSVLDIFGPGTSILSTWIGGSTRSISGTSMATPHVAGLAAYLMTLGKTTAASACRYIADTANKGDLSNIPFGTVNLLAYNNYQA

Row | Sequence | production of interlukin-8 (IL-8) in U937 cells [1] | up-regulation of IL-8 secretion compared with Product R ([1]; listed as Peptide B) | up-regulation of IL-8 secretion compared with Product R ([1]; listed as peptide-B) | Sensitivity of the Peptide Components of Product R (SDS-PAGE): Chymotrypsin (250 μg/ml) (chymotrypsin) | change of band intensity after chymotrypsin treatment (chymotrypsin) | production of monocyte chemotactic protein 1 (MCP-1) in U937 cells [2] | up-regulation of MCP-1 secretion compared with Product R ([2]; listed as peptide-B) | Sensitivity of the Peptide Components of Product R (SDS-PAGE): Trypsin (250 μg/ml) (trypsin) | Sensitivity of the Peptide Components of Product R (SDS-PAGE): Proteinase K (100 μg/ml) (proteinase K; 100 μg/ml proteinase K, 40° C., 30 minutes) | Sensitivity of the Peptide Components of Product R (SDS-PAGE): Proteinase K (800 μg/ml) (proteinase K) | change of silver stained bands after proteinase K treatment (proteinase K) | up-regulation of IL-8 secretion compared with Product R [1] | up-regulation of MCP-1 secretion compared with Product R [2]
1 | GEIPDAGGRIVDYYVGFSDSV (not fully specified (residue 18)) [Peptide-B, 21-amino acid peptide linked at serine 18 through a diphosphodiester group to the 3′-end of an adenylyl (3′-5′) adenosine moiety] | capable of inducing the production; also recorded: contributes more to the activity than peptide-A | maintained most of the ability of Product R to up-regulate IL-8 secretion | induces higher levels of secretion of IL-8 or MCP-1 than peptide-A | − | no apparent effect | capable of inducing the production; also recorded: contributes more to the activity than peptide-A | failed to elicit a response same as that of Product R; also recorded: slightly more active than peptide A; also recorded: induces higher levels of secretion of IL-8 or MCP-1 than peptide-A | − | − | − | no obvious change |  | 
2 | KVLPVPQKAVPYPQRDMPIQAFLLYQEPVLG [Peptide-A, 31-amino-acid long peptide derived from bovine beta-casein, constituent of Product R] | capable of inducing the production |  |  | + | significantly reduces the intensity | capable of inducing the production |  | − |  | + | disappears | only elicited a less response | failed to elicit a response same as that of Product R
